Test results: US20230194547A1

Sequence of Ustekinumab (antibody) (HC): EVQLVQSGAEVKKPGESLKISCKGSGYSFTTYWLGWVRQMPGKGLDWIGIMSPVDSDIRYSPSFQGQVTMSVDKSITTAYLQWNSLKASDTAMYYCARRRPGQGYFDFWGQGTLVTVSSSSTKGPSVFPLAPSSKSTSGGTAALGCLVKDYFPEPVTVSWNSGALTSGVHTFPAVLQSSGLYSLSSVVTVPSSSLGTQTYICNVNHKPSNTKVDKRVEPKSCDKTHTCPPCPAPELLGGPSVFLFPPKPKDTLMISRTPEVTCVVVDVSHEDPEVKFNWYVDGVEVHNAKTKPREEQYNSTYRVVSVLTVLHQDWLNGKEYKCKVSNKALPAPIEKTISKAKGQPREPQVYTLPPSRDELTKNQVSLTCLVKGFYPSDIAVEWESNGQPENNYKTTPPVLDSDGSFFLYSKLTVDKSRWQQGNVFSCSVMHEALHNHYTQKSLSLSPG
Sequence of Ustekinumab (antibody) (LC): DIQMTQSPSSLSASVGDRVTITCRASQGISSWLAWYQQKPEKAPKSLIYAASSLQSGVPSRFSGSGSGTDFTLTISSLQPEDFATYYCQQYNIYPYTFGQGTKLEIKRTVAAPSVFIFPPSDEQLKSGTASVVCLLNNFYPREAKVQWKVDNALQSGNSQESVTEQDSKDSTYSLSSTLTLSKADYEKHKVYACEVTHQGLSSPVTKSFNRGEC
Sequence of Ixekizumab, labelled with pHAb dye (antibody) (HC): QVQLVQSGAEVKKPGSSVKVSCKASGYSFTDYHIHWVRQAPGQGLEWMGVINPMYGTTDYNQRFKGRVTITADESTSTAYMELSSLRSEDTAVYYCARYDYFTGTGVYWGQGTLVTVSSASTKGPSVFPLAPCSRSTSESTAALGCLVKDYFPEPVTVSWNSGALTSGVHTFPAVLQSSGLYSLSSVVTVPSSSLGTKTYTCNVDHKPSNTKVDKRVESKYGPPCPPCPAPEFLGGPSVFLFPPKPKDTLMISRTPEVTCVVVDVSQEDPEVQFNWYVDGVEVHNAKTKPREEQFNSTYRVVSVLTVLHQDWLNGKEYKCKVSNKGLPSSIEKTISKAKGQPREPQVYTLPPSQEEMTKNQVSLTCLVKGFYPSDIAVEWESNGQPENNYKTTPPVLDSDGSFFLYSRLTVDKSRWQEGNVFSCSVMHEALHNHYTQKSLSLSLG
Sequence of Ixekizumab, labelled with pHAb dye (antibody) (LC): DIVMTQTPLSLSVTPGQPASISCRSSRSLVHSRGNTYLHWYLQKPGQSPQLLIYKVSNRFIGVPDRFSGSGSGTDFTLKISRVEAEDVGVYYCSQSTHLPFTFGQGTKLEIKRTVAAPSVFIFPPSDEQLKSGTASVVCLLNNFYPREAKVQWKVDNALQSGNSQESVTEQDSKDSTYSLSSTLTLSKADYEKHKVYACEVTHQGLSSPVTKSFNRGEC
Sequence of Avelumab (antibody) (HC): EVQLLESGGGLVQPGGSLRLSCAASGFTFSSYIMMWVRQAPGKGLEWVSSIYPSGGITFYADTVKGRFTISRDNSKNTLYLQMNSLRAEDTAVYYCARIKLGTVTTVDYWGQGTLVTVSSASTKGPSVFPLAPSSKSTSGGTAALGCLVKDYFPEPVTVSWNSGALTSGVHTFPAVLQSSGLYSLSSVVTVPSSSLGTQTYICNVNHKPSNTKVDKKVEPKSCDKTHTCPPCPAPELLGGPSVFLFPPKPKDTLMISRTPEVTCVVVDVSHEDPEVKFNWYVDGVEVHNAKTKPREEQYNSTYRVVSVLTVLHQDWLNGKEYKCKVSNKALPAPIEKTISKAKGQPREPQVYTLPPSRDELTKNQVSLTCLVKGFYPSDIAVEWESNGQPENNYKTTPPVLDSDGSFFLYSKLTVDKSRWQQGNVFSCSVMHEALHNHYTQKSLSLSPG
Sequence of Avelumab (antibody) (LC): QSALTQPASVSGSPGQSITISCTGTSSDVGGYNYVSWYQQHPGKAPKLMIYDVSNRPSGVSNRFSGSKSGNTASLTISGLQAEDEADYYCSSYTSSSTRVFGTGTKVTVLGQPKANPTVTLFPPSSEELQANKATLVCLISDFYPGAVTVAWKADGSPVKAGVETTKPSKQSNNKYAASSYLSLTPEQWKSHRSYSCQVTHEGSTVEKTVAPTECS

What follows are substances tested against human FcRn beta-2-microglobulin complex, biotinylated, coupled to streptavidin Sepharose (human) (UniProt P55899) (assay: FcRn affinity chromatography, pH gradient 5.5 to 8.8; unlabelled antibody).
Sequence of human FcRn beta-2-microglobulin complex, biotinylated, coupled to streptavidin Sepharose (human) (P55899 24-297 limits assumed, chain 1 of 2): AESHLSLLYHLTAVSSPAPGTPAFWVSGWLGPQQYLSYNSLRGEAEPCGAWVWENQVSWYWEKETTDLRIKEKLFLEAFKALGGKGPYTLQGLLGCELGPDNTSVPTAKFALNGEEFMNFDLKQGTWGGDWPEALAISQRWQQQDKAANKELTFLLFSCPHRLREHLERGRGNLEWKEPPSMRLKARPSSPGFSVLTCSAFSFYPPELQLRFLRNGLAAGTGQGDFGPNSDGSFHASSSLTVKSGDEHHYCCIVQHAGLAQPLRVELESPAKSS
Sequence of human FcRn beta-2-microglobulin complex, biotinylated, coupled to streptavidin Sepharose (human) (P61769 21-119 limits assumed, chain 2 of 2, further chain): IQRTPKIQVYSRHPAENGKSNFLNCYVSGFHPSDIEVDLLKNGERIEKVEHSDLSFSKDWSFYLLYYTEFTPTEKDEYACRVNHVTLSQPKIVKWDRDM
For Adalimumab (antibody), the relative retention time on FcRn affinity column (relative to anti-Her3 antibody standard) was 0.93.
Work on Motavizumab-YTE (antibody) yielded a relative retention time on FcRn affinity column (relative to anti-Her3 antibody standard) of 4.52.
With Ofatumumab (antibody) the relative retention time on FcRn affinity column (relative to anti-Her3 antibody standard) was 0.72.
Motavizumab WT (antibody) gave a relative retention time on FcRn affinity column (relative to anti-Her3 antibody standard) of 0.5.
Nivolumab (antibody) showed a relative retention time on FcRn affinity column (relative to anti-Her3 antibody standard) of 0.49.
In the case of Avelumab (antibody), the relative retention time on FcRn affinity column (relative to anti-Her3 antibody standard) is reported as 1.27.
Substance Reslizumab (antibody) has a relative retention time on FcRn affinity column (relative to anti-Her3 antibody standard) of 0.5.
Work on Palivizumab (antibody) yielded a relative retention time on FcRn affinity column (relative to anti-Her3 antibody standard) of 0.31.
Work on Ustekinumab (antibody) yielded a relative retention time on FcRn affinity column (relative to anti-Her3 antibody standard) of 0.48.

What follows are substances tested against human FcRn beta-2-microglobulin complex, biotinylated, coupled to streptavidin Sepharose (human) (UniProt P55899) (assay: FcRn affinity chromatography, pH gradient 5.5 to 8.8; dye-labelled antibody).
Work on “Nivolumab, labelled with pHAb dye (antibody)” yielded a relative retention time on FcRn affinity column (relative to anti-Her3 antibody standard) of 0.39.
For “Reslizumab, labelled with pHAb dye (antibody)”, the relative retention time on FcRn affinity column (relative to anti-Her3 antibody standard) was 0.41.
“Ixekizumab, labelled with pHAb dye (antibody)” gave a relative retention time on FcRn affinity column (relative to anti-Her3 antibody standard) of 1.33.
Substance “Motavizumab WT, labelled with pHAb dye (antibody)” has a relative retention time on FcRn affinity column (relative to anti-Her3 antibody standard) of 0.42.
Work on “Ofatumumab, labelled with pHAb dye (antibody)” yielded a relative retention time on FcRn affinity column (relative to anti-Her3 antibody standard) of 0.67.
For “Palivizumab, labelled with pHAb dye (antibody)”, the relative retention time on FcRn affinity column (relative to anti-Her3 antibody standard) was 0.28.
Work on “Ustekinumab, labelled with pHAb dye (antibody)” yielded a relative retention time on FcRn affinity column (relative to anti-Her3 antibody standard) of 0.41.
With “Adalimumab, labelled with pHAb dye (antibody)” the relative retention time on FcRn affinity column (relative to anti-Her3 antibody standard) was 0.84.
Work on “Avelumab, labelled with pHAb dye (antibody)” yielded a relative retention time on FcRn affinity column (relative to anti-Her3 antibody standard) of 1.25.
“Motavizumab-YTE, labelled with pHAb dye (antibody)” was tested, and the relative retention time on FcRn affinity column (relative to anti-Her3 antibody standard) was 4.88.
